The assay concerns the target HLA-DR (human). The assay is described as follows: cell-based or functional assay.

B1: HPIV3 Matrix Epitope Peptide 84 (…) (peptide)
peptide: GEFRYYPNIIAKGVG
In the case of B1, the IFN-gamma production, decrease in the presence of HLA-DR blocking antibodies lay within 32 to 80%.

For the origin of these results see US20230036213A1.
